Results: the supplement of paper PMC12764529
± gives the half width of the 95% confidence interval.

Key:
[1] = folding stability dG unfold from trypsin proteolysis; higher = more stable
Method: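 Folding stability of de novo designed mini-proteins (<80 aa, no Cys; designed by TrROS, TrMRF, ProteinMPNN and the joint model) was measured by cDNA display proteolysis with trypsin and chymotrypsin. Each protease was used at 11 concentrations in a threefold dilution series plus a no-protease condition. K50 was inferred by Bayesian fitting of sequencing counts, and dG unfold was derived against a sequence-predicted unfolded-state K50 (Tsuboyama et al. method). Sequences shown include variable-length N-terminal GS-type padding (SAGGSAGG...) inside a display construct carrying a PA tag. Rows were kept only if the AF2 dimer inter-PAE was >15, to exclude likely homo-oligomers.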

[2] = folding stability dG unfold (combined trypsin and chymotrypsin); higher = more stable
Procedure, shortened: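 Unfolding free energy was derived, per protease or combined, against a sequence-predicted unfolded-state K50 and a shared folded-state K50, starting from K50 inferred by Bayesian fitting of sequencing counts. Digestion with trypsin and chymotrypsin was carried out on designed mini-proteins under 80 residues without cysteine in a PA-tagged cDNA display construct. Only designs with AlphaFold2 dimer inter-PAE above 15 were kept.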

| Sequence | folding stability dG unfold [1] | folding stability dG unfold [2] |
| --- | --- | --- |
| SAGGSAGGSAGGKKVKIKIEIPGMSKEEIEKLAKELEKKGIKVEKIEVKPLPKVEVFEKKSAGGSAGGSAGG [r7_906_TrROS_Hall] | -0.602 ± 0.27 kcal/mol | < -1 kcal/mol |
| SAGGSAGGSAGGKRITIMFNTPEQIEELAENLGFDDIEVEPFPNEDGRPYVQVTIRLPPSAGGSAGGSAGGS [r10_494_TrROS] | -0.703 ± 0.15 kcal/mol | < -1 kcal/mol |
| SAGGSAGGSAGGKVRVETDPERGYYKVKIRNPNNGRKIKVPVPMDDPKKAKKQAKELAKSAGGSAGGSAGGS [r10_1117_TrROS] | -0.863 ± 0.5 kcal/mol | < -1 kcal/mol |
| SAGGSAGGSAGGLEVSIPGWTVTKTEPLPDDSVLSTATKKNGPKFLISISPDEVTISPESAGGSAGGSAGGS [r10_312_JUSTAS] | -0.394 ± 0.16 kcal/mol | < -1 kcal/mol |
| SAGGSAGGSAGGLSPESFYTVEVYNKDGTKLGPAQVVSTGTGKVVIPIEPDVEIILNPSSAGGSAGGSAGGS [r10_1257_JUSTAS] | 0.346 ± 0.17 kcal/mol | -0.136 ± 0.21 kcal/mol |
| SAGGSAGGSAGGMKTYSVEELRARLEEEGKEPTLEELASLPGAKVELNKETKEATIVLKPSAGGSAGGSAGG [r7_180_TrROS_Hall] | 0.044 ± 0.16 kcal/mol | < -1 kcal/mol |
| SAGGSAGGSAGGMPIRVYRDPSNPDVVYVETPESTRDVSLEEVERLPVDEIRSAAEVAAESAGGSAGGSAGG [r17_88_JUSTAS] | 0.335 ± 0.021 kcal/mol | -0.206 ± 0.16 kcal/mol |
| SAGGSAGGSAGGMTKISVNIVIYDPKNNTTKIIPITMSESEIKKVKEELVPKNMSAKILSAGGSAGGSAGGS [r10_397_JUSTAS] | 0.847 ± 0.12 kcal/mol | 0.191 ± 0.24 kcal/mol |
| SAGGSAGGSAGGMVIEIDVPPSVPASEVKEKVKAELLKKGVPKDTEIKVIVKPKNPELLSAGGSAGGSAGGS [r10_746_JUSTAS] | -0.656 ± 0.2 kcal/mol | < -1 kcal/mol |
| SAGGSAGGSAGGMYIATFKPPDGSEITVKLNPGEKVTIKLKDGTPAGVVSKKAVSPELLSAGGSAGGSAGGS [r10_422_JUSTAS] | -0.245 ± 0.17 kcal/mol | -0.361 ± 0.68 kcal/mol |
| SAGGSAGGSAGGPKFKFEDVMVQRNPEPERAYVPITYEDPGKERPIMIPIPPNQTLDEISAGGSAGGSAGGS [r10_304_TrROS] | 0.0428 ± 0.068 kcal/mol | < -1 kcal/mol |
| SAGGSAGGSAGGPVVNILVKHPNGKKETISVDVKEENIGEVATDILPKGYEVLEPSVFPGSAGGSAGGSAGG [r7_159_TrMRF] | -0.258 ± 0.1 kcal/mol | < -1 kcal/mol |
| SAGGSAGGSAGGSGGSMEVSISEAPPEYLVVTVYDPATGKTTVRKVSPSEVKSLKYEGGSAGGSAGGSAGGS [r4_494_JUSTAS] | 0.274 ± 0.053 kcal/mol | < -1 kcal/mol |
| SAGGSAGGSAGGSKKIIIPVGNKPIEITLHPDEIPEIHPETNYISIYLPKTNDVLILPVGSAGGSAGGSAGG [r7_7_TrMRF] | -0.0749 ± 0.051 kcal/mol | < -1 kcal/mol |
| SAGGSAGGSAGGSMGPVPVWITIKIPDKNGKPKRKIEIPMEGPNMTPSEIRKQAKPFIKSAGGSAGGSAGGS [r4_375_TrROS] | -0.281 ± 0.49 kcal/mol | < -1 kcal/mol |
| SAGGSAGGSAGGSMKVEKFTEIITTPDGKPELIVEKEKTTTPNGGTKTTVTKIIPAKLLSAGGSAGGSAGGS [r4_117_JUSTAS] | -0.306 ± 0.38 kcal/mol | < -1 kcal/mol |
| SAGGSAGGSAGGSMRYDIVEDPETGTVTINRYVVYPPGIEKKTEGEIVPASTVPPGDLLGSAGGSAGGSAGG [r7_455_JUSTAS] | -0.0505 ± 0.29 kcal/mol | < -1 kcal/mol |
| SAGGSAGGSAGGSPPTAKELVKELREKFPPGYPITIKHPDKTIRIMMNPGPGKFQVEIYSAGGSAGGSAGGS [r4_150_TrROS] | -0.236 ± 0.37 kcal/mol | < -1 kcal/mol |
| SAGGSAGGSAGGSQELTIKIPPGEPDVRIFFPDGGEEHEIPPGDEREIELSPDKIAVQPSAGGSAGGSAGGS [r10_46_TrROS] | 0.763 ± 0.059 kcal/mol | -0.148 ± 0.25 kcal/mol |
| SAGGSAGGSAGGSSRTIKLDGYKITVHPNSVHIYPPKNGKPVTVPMDNPEVQDLIKELISAGGSAGGSAGGS [r4_353_TrROS] | -1.19 ± 0.31 kcal/mol | < -1 kcal/mol |
| SAGGSAGGSAGGSSSLPLSTGTIPLEELEAQGGPIVEVTVLLFSGSSNRTIVMDLPPELVSAGGSAGGSAGG [r7_116_JUSTAS] | -0.372 ± 0.29 kcal/mol | -0.596 ± 0.31 kcal/mol |
| SAGGSAGGSAGGSSVPADTVVELEFKDEKGEPLLITVRVTTKDSGVDRTVLEVRPPELLSAGGSAGGSAGGS [r10_744_JUSTAS] | 0.00915 ± 0.05 kcal/mol | -0.424 ± 0.17 kcal/mol |
| SAGGSAGGSAGGSSVSSLSIKNPPSDPKGILSSVSPEGKVVLTTVNPDGSLTTTVVDVNSAGGSAGGSAGGS [r4_177_JUSTAS] | 0.787 ± 0.065 kcal/mol | 0.414 ± 0.2 kcal/mol |
| SAGGSAGGSAGGTKEFPIWFGGEPVKVTVEPDPDGQPKIEIEEPGGAEITIPPGGPLQFSAGGSAGGSAGGS [r10_989_TrROS] | 0.934 ± 0.061 kcal/mol | 0.343 ± 0.21 kcal/mol |

| Sequence | folding stability dG unfold [1] | folding stability dG unfold [2] |
| --- | --- | --- |
| SAGGSAGGSAGGTKVIPFDSVEEILEEVKKDPNKPRYIRMPGAWIKINKPGDITEIEPWPSAGGSAGGSAGG [r7_532_TrROS] | -0.655 ± 0.46 kcal/mol | < -1 kcal/mol |
| SAGGSAGGSAGGVKPGEVLPDGRLLVTWDEETNELTVYFEDTETITLKAPPPVVVSPEDLSAGGSAGGSAGG [r7_522_TrROS_Hall] | 0.0426 ± 0.11 kcal/mol | -0.614 ± 0.46 kcal/mol |
| SAGGSAGGSAGKEIHIPFPDGDTPEQAKKFAKEIADMLAQKNGKPIKVDKIEIIPPEQWPSAGGSAGGSAGG [r17_68_TrROS] | -0.546 ± 0.11 kcal/mol | -0.804 ± 0.34 kcal/mol |
| SAGGSAGGSAGKKRKIEINIIVPPEGAKQMAKMIKDELAQRNRDVDIEIKIIPVPPGQPLSAGGSAGGSAGG [r11_973_TrROS] | 0.434 ± 0.16 kcal/mol | < -1 kcal/mol |
| SAGGSAGGSAGMKPGQEVRVEVPVPNNGKKIKIPVYVPPGYTPKQAKNMAIMMAKMIREMSAGGSAGGSAGG [r11_355_TrROS] | 0.516 ± 0.072 kcal/mol | 0.0699 ± 0.096 kcal/mol |
| SAGGSAGGSAGMKPGQVVIYKIKIPLPDDGEPLFEIPIMYPVGMPEEQAKDFAKEFADKFSAGGSAGGSAGG [r11_516_TrROS] | -0.41 ± 0.12 kcal/mol | -0.586 ± 0.24 kcal/mol |
| SAGGSAGGSAGMLLLTFPERGISYEIKLGDKEEEREADPEEVEKLIAELPNYEVKEVELLSAGGSAGGSAGG [r11_57_JUSTAS] | 0.559 ± 0.1 kcal/mol | 0.288 ± 0.26 kcal/mol |
| SAGGSAGGSAGMPLPIKTLTEVSTVEGVGITLTALDNGLVIVEKSDGKVTVIPLSAYEAQSAGGSAGGSAGG [r11_254_JUSTAS] | 0.643 ± 0.04 kcal/mol | -0.0335 ± 0.073 kcal/mol |
| SAGGSAGGSAGMSPNIVSYETVESDKNGNIIKKTTYLYSDNTIITETFSPKKKKKIQTFSKESAGGSAGGSA [r18_302_JUSTAS] | -0.434 ± 0.29 kcal/mol | < -1 kcal/mol |
| SAGGSAGGSAGMYTVSPVGSGGGGSMIRIENPETGEVIELDFDSEEEAAAAAEELKEKLASAGGSAGGSAGG [r11_848_JUSTAS] | 0.343 ± 0.043 kcal/mol | -0.22 ± 0.17 kcal/mol |
| SAGGSAGGSAGNIAERLQEAFPDYGIEVTDITPNGSITVTSRGPPGHRKKIQKAVKELLNSAGGSAGGSAGG [r11_418_TrROS] | -0.879 ± 0.57 kcal/mol | < -1 kcal/mol |
| SAGGSAGGSAGPGEPVPIRLKIYGPNGQPHTHPFPVKNPEEFKDNLRFPVPNGWAVEIEYSAGGSAGGSAGG [r11_671_TrROS] | -0.719 ± 0.37 kcal/mol | < -1 kcal/mol |
| SAGGSAGGSAGPVISKSEVESTEIIFSYNNKHEITVKKVKKTITTTIPPVKLKPDGTPILSAGGSAGGSAGG [r11_558_JUSTAS] | -0.803 ± 0.51 kcal/mol | -0.349 ± 0.54 kcal/mol |
| SAGGSAGGSAGSKEKLEEEAKAKGRPVTPLPDGTLKVETVDPNKGTASTTVIDPETAEKLSAGGSAGGSAGG [r11_994_JUSTAS] | -0.626 ± 0.058 kcal/mol | < -1 kcal/mol |
| SAGGSAGGSAGSMPIVLRAEFPSNDETVEIPVTSPEEAERVAQELAAQPDWPLEKVDFGGSAGGSAGGSAGG [r11_951_JUSTAS] | 0.414 ± 0.064 kcal/mol | < -1 kcal/mol |
| SAGGSAGGSAGSPPGSTTLRAETVVVELPAAEAYTPEGERVELPRVIVEETVERELEAGLSAGGSAGGSAGG [r11_907_JUSTAS] | 0.427 ± 0.043 kcal/mol | -0.216 ± 0.31 kcal/mol |
| SAGGSAGGSAGSVEEIESPDGTKTLVTKEPDSIKTTVTKPGGIPTLVTIDSKTGKWSVSLSAGGSAGGSAGG [r11_590_JUSTAS] | -0.595 ± 0.24 kcal/mol | -0.714 ± 0.63 kcal/mol |
| SAGGSAGGSAGSYEFDPSKSALVRVTLQPPDGVPVEIEIPVEELEEILPGDRPVLSIEVSSAGGSAGGSAGG [r17_449_JUSTAS] | 0.0674 ± 0.14 kcal/mol | -0.838 ± 0.51 kcal/mol |
| SAGGSAGGSAGTKEYEVKVGDKIVRISETPDSRVIDYPETDFKKEFSSDFPGKPIAEYLASAGGSAGGSAGG [r11_648_TrMRF] | -0.781 ± 0.49 kcal/mol | < -1 kcal/mol |
| SAGGSAGGSAGTVIYIDPETDMARVLVPDADGVLVDERAVPPDQLPDVLSQGNFTVVPAPSAGGSAGGSAGG [r11_159_TrMRF] | -0.327 ± 0.36 kcal/mol | -0.943 ± 0.84 kcal/mol |
| SAGGSAGGSAGVELPPSLSAEVTPVPGKPGLSRVTITLPDGVVRTIDLERKGDKWIVNPRSAGGSAGGSAGG [r11_177_JUSTAS] | -0.0818 ± 0.14 kcal/mol | < -1 kcal/mol |
| SAGGSAGGSAMILVPKEKLEEAAKKLNLNIVEVKPVPPGIEVAEVKVEGSEEQKKAFLEALLSAGGSAGGSA [r18_175_JUSTAS] | 0.216 ± 0.082 kcal/mol | 0.0149 ± 0.2 kcal/mol |
| SAGGSAGGSAMKPERIELPGNEVAVIEKVPEAGVYIVTFKKPEGDEPLGEKIFKPDEIDLKLESAGGSAGGS [r20_190_JUSTAS] | -1.17 ± 0.24 kcal/mol | < -1 kcal/mol |
